Columns and labels:
[1] = CD control: β-sheet propensity of the conjugates alone; assay type: physicochemical; conditions: 10 mM phosphate buffer pH 7.4, room temperature, up to 120 h
Method: The UV‐Vis spectra of porphyrin‐peptide conjugates (5 μM) were recorded in the presence of an equimolar ration of Aβ42 monomers at 0, 24, 48 and 120 h (Figure 2S). […] Therefore, the interaction of the peptide‐porphyrin conjugates with Aβ was further studied using CD spectroscopy. The Aβ42 aggregation process was monitored either in the absence or in the presence of an equimolar amount of the conjugated peptides. A series of CD control experiments were preventively carried out to assess the propensity of the porphyrin‐peptide conjugates to adopt a β‐sheet conformation. The corresponding CD curves are shown in the supplementary material (Figure 3S). […] We then evaluated the ability of the porphyrin‐peptide conjugates to affect the Aβ42’s aggregation process. This was accomplished by running a series of CD experiments on the binary systems in the same experimental conditions as the control CD measurements. A 5 μM Aβ42 sample was used as a positive control of the aggregation process (Figure 3, panel a). In this case, the curve profiles indicate that at 0 h, Aβ42 is predominantly in the random coil conformation, as evidenced by the negative ellipticity around 200 nm. […] The typical dichroic profile characterized by a negative ellipticity at λ=222 nm and a positive band at λ=200 is indicative of this event (Figure 3, panel a).
Spectra were recorded on a J‐810 spectrometer (Jasco, Japan) under a constant flow of N2 at room temperature. The CD measurements were performed in the wavelength regions (190–260 nm, 195–350 nm and 350–500 nm) using a 1 cm path length quartz cell. All aggregation kinetics were monitored up to 120 hours. The CD spectra were recorded for Aβ42 (5 μM and 20 μM) monomer in the absence or in the presence of porphyrin‐peptide conjugates (5 μM and 20 μM for the 1 : 1 molar ratios). Monomerized samples of Aβ42 (5 μM and 20 μM) were solubilized in 50 μL of NaOH 20 mM (2,5 %) and after were diluted with 1950 μL of 10 mM phosphate buffer at pH 7.4 pure or containing the solubilized conjugates.

Aβ42 = Aβ42 (Homo sapiens, UniProt P05067); assay: bis-Ans fluorescence anti-fibrillogenic assay; assay type: biochemical; conditions: Aβ42 20 μM, 1:1, 60 μM Bis-Ans solution, phosphate buffer pH 7.4, 37 °C, 65 h, ex/em 385/510 nm, triplicate
From the text: We also carried out fluorescence assays to evaluate the anti‐fibrillogenic ability of the porphyrin‐peptide conjugates. We used the bis‐Ans (4,4’‐Dianilino‐1,1’‐binaphtyl‐5,5’disulphonic acid) as a chromophore instead of the typical Th−T (Thioflavin‐T), to avoid any potential interference that might occur between the porphyrin and Th−T, in both the excitation and emission wavelength regions. The bis‐Ans probe is sensitive to Aβ fibril formation, and it specifically binds to solvent‐exposed hydrophobic surfaces leading to an increase in its fluorescence emission maximum at 510 nm, in our case.[47] The bis‐Ans fluorescence kinetics were recorded with Aβ42 (20 μM) alone or in the presence of the porphyrin‐peptide conjugates at a 1 : 1 molar ratio. The kinetic profiles of the porphyrin‐peptide conjugates in the absence of Aβ42 were also acquired for comparison (Figure 4S). […] The obtained fluorescence intensities were compared with the values obtained for Aβ42 alone.
Bis‐Ans fluorescence kinetics were measured on a Flash Thermo Varioskan spectrofluorometer with excitation and emission at 385 and 510 nm, respectively. Aβ42, alone or in the presence of the porphyrin‐peptide conjugates in a 1 : 1 molar ratio, was dissolved in 10 mM aq NaOH (30 μL). […] Readings were taken every 10 min, after weak shaking for 10 s. The fluorescence intensity was monitored for 65 h. […]

Chain of Aβ42 (P05067 672-713 limits assumed): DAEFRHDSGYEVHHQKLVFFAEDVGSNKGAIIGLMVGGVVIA

In the case of `COC(=O)[C@H](Cc1cn(CCCC[C@H](NC(=O)CNC(C)=O)C(=O)N2CCC[C@H]2C(=O)NCC(=O)N[C@@H](CCCCN)C(=O)N[C@@H](CC(C)C)C(=O)N[C@H](C(=O)N[C@@H](Cc2ccccc2)C(=O)N[C@@H](Cc2ccccc2)C(N)=O)C(C)C)nn1)NC(=O)c1ccc(-c2c3nc(c(-c4cc[n+](C)cc4)c4ccc([nH]4)c(-c4cc[n+](C)cc4)c4nc(c(-c5cc[n+](C)cc5)c5ccc2[nH]5)C=C4)C=C3)cc1` [Zn‐Ph‐Pep], the “propensity to adopt β-sheet conformation (conjugate alone)” value [1] was “being faster in this process” and the “effect on Aβ42 fibril formation (bis-Ans fluorescence)” value (Aβ42) was “might support or even accelerate Aβ42’s fibril formation”.

Reference: publication PMC11610669, “A Spectroscopic Study on the Amyloid‐β Interaction with Clicked Peptide‐Porphyrin Conjugates: a Vision Toward the Detection of Aβ Peptides in Aqueous Solution” (Chembiochem, 2024)
